Reference: US20210380703A1
Positions count from the first letter of the chain named.

B1: 368_B09 (antibody, V domains shown)
VH: EVQLLESGGGLVQPGGSLRLSCAASGFTFDSYGMNWVRQAPGKGLEWVSNINYNGGYKGYADSVKGRFTISRDNSKNTLYLQMNSLRAEDTAVYYCARGANWHDTHLDYWGQGTLVTVSS
VL: DIQMTQSPSSLSASVGDRVTITCRASQSILSYLNWYQQKPGKAPKLLIYAATSRHSGVPSRFSGSGSGTDFTLTISSLQPEDFATYYCQQSYDTPLTFGGGTKVEIK
B2: 371_H06 (antibody, V domains shown)
VH: B1 VH with N50G, K58T, G59S, H106A
VL: B1 VL with L30S, L47V, A51V, H55A, T94L
B3: 369_D07 (antibody, V domains shown)
VH: B1 VH with D30S, N50G, G59S
VL: B1 VL with L30V, L47V, H55A, T94L
B4: 369_D03 (antibody, V domains shown)
VH: B1 VH with D30S, G33S, N50G, K58T, G59S
VL: B1 VL with S31T, L47V, H55A, D93E, T94N
B5: 370_A02 (antibody, V domains shown)
VH: B1 VH with S49A, N50G, K58T, H106A
VL: B1 VL with L30V, S31T, L47V, H55A, T94S
B6: 371_B03 (antibody, V domains shown)
VH: B1 VH with D30S, N35H, S49A, N50S, K58T, G59S
VL: B1 VL with L33V, A51T, H55A, T94N
B7: 371_H10 (antibody, V domains shown)
VH: B1 VH with D30S, G33S, S49A, N50G, G55S, G59S
VL: B1 VL with L30S, S31T, D93E, T94N
B8: 370_B03 (antibody, V domains shown)
VH: B1 VH with D30S, G33S, S49A, K58T, H106A
VL: B1 VL with L47V, H55A, D93N, T94N
B9: 369_C05 (antibody, V domains shown)
VH: B1 VH with G33S, S49A, N50G, K58T, G59S, H106A
VL: B1 VL with L30S, L33V, L47V, A51T, D93N, T94S
B10: 371_A10 (antibody, V domains shown)
VH: B1 VH with S31D, G33S, N50G, H106A
VL: B1 VL with L30V, L47V, H55A, D93E, T94N
B11: 371_F11 (antibody, V domains shown)
VH: B1 VH with D30S, G33S, N50G, K58T, G59S, H106A
VL: B1 VL with L30I, L33V, A51V, H55A, T94L
B12: 368_H05 (antibody, V domains shown)
VH: B1 VH with D30S, G33S, S49A, G59S
VL: B1 VL with L30V, L33V, L47V, A51T, H55A, D93E, T94S
B13: 371_G04 (antibody, V domains shown)
VH: B1 VH with G33S, N50G, G59S, H106A
VL: B1 VL with R54L, D93E, T94S
B14: 370_F03 (antibody, V domains shown)
VH: B1 VH with D30S, N50S, G55S, G59S, H106A
VL: B1 VL with L33V, H55A, D93E, T94N
B15: 368_F09 (antibody, V domains shown)
VH: B1 VH with D30S, N50G, G55S, K58T, G59S
VL: B1 VL with S31T, T52S, R54L, H55Q, D93E
B16: 371_B09 (antibody, V domains shown)
VH: B1 VH with D30S, G33S, S49A, N50G, G55S, K58T
VL: B1 VL with L33V, L47V, A51T, R54L, H55A
B17: 369_E06 (antibody, V domains shown)
VH: B1 VH with D30S, N50G, K58T, G59S, H106A
VL: B1 VL with L30I, L47V, T94S
B18: 371_E06 (antibody, V domains shown)
VH: B1 VH with D30S, G33S, N50G, K58T, G59S, H106A
VL: B1 VL with L30S, S31T, A51V, R54L, D93E, T94S
B19: 368_H02 (antibody, V domains shown)
VH: B1 VH with D30S, S49A, N50G, G55S, K58T, G59S, H106A
VL: B1 VL with L30V, S31T, L47V, H55A, D93E, T94S
B20: 371_C01 (antibody, V domains shown)
VH: B1 VH with D30S, N35H, N50S, K58T
VL: B1 VL with L30V, T94N
B21: 371_H04 (antibody, V domains shown)
VH: B1 VH with D30S, K58T, H106A
VL: B1 VL with S31T, H55A, D93N, T94S
B22: 367_D11 (antibody, V domains shown)
VH: B1 VH with N35H, G59S, G99A, H106A
VL: B1 VL with L30I, H55A, T94S
B23: 371_H08 (antibody, V domains shown)
VH: B1 VH with D30S, S49A, N50S
VL: B1 VL with L30I, L33V, L47V, A51V, H55A
B24: 371_B04 (antibody, V domains shown)
VH: B1 VH with D30S, G33S, N50G, G59S, H106A
VL: B1 VL with L47V, A51V, T94S
B25: 371_B12 (antibody, V domains shown)
VH: B1 VH with D30S, S31D, G33S, S49A, N50G, G55S, K58T, G59S, H106A
VL: B1 VL with L30V, S31T, L47V, D93N, T94N
B26: 369_B05 (antibody, V domains shown)
VH: B1 VH with G33S, N50G, G59S
VL: B1 VL with L30I, R54L, H55A
B27: 371_E10 (antibody, V domains shown)
VH: B1 VH with G33S, S49A, N50G, K58T, G59S, H106A
VL: B1 VL with L30S, S31T, A51V, H55A, D93N, T94S
B28: 371_D04 (antibody, V domains shown)
VH: B1 VH with S31D, G33S, S49A, N50G, K58T
VL: B1 VL with L30V, L33V, R54L, H55A, D93E, T94N
B29: 369_A07 (antibody, V domains shown)
VH: B1 VH with D30S, G33S, S49A, N50G, H106A
VL: B1 VL with L47V, H55A, D93E, T94S
B30: 371_C05 (antibody, V domains shown)
VH: B1 VH with D30S, S31D, N35H, S49A, K58T, H106A
VL: B1 VL with H55A, T94S
B31: 367_F06 (antibody, V domains shown)
VH: B1 VH with D30S, N50S, G55S, K58T, G59S, G99A, H106A
VL: B1 VL with L30S, L33V, A51V, H55A, T94S
B32: 371_G02 (antibody, V domains shown)
VH: B1 VH with S49A, N50S, K58T, G59S
VL: B1 VL with H55A, T94L
B33: 368_E12 (antibody, V domains shown)
VH: B1 VH with D30S, S31D, S49A, N50G, K58T, G59S
VL: B1 VL with L30V, L33V, L47V, A51V, H55A, T94S
B34: 371_H05 (antibody, V domains shown)
VH: B1 VH with D30S, N50G, G55S, G59S, H106A
VL: B1 VL with L30I, R54L, H55A, D93S, T94L
B35: 370_B11 (antibody, V domains shown)
VH: B1 VH with G33S, N50G, G55S, K58T, G59S
VL: B1 VL with L47V, S91G, T94L
B36: 367_B09 (antibody, V domains shown)
VH: B1 VH with N35H, S49A, N50S, K58T, G59S, G99A, H106A
VL: B1 VL with L33V, L47V, H55A, D93E, T94N
B37: 371_G11 (antibody, V domains shown)
VH: B1 VH with D30S, G55S, K58T, G59S, H106A
VL: B1 VL with L33V, R54L, H55A, T94S
B38: 369_D09 (antibody, V domains shown)
VH: B1 VH with D30S, S31D, K58T, G59S, H106A
VL: B1 VL with S31T, H55A, T94S
B39: 371_C12 (antibody, V domains shown)
VH: B1 VH with D30S, G33S, S49A, N50G, G55S, G59S
VL: B1 VL with L30V, L33V, H55A
B40: 370_H02 (antibody, V domains shown)
VH: B1 VH with G33S, N50G, G55S, K58T, G59S
VL: B1 VL with S31T, H55A, D93E, T94S
B41: 370_B12 (antibody, V domains shown)
VH: B1 VH with D30S, S31D, G33S, N50G, H106A
VL: B1 VL with L33V, L47V, A51T, H55A, D93E
B42: 371_E07 (antibody, V domains shown)
VH: B1 VH with G33S, S49A, N50G, K58T, G59S, H106A
VL: B1 VL with L30I, R54L, H55A, D93E, T94S
B43: 371_F10 (antibody, V domains shown)
VH: B1 VH with N50G, G55S, K58T, G59S, H106A
VL: B1 VL with L30S, L47V, A51V, H55A, D93E, T94S
B44: 370_D05 (antibody, V domains shown)
VH: B1 VH with S31D, G33S, H106A
VL: B1 VL with L30I, S31T, L47V
B45: 371_G09 (antibody, V domains shown)
VH: B1 VH with D30S, G33S, S49A, K58T, H106A
VL: B1 VL with L47V, H55A, Y92D, D93S
B46: 370_H07 (antibody, V domains shown)
VH: B1 VH with D30S, G33S, S49A, N50G, G59S, H106A
VL: B1 VL with R54L, H55A, Y92D, D93S, T94S
B47: 372_B02 (antibody, V domains shown)
VH: B1 VH with D30S, G33S, N50G, G55S, K58T, G59S, H106A
VL: B1 VL with L33V, A51V, R54L, H55A, D93E
B48: 371_D02 (antibody, V domains shown)
VH: B1 VH with S31D, G33S, S49A, N50G, G59S, H106A
VL: B1 VL with L30V, S31T, H55A, T94S

What follows are binders tested against human Fc (human) (assay: ELISA, negative control).

optical density	Binder
0.258 OD	B1
0.346 OD	B2
0.363 OD	B3
0.391 OD	B4
0.425 OD	B5
0.367 OD	B6
0.358 OD	B7
0.3 OD	B8
0.32 OD	B9
0.338 OD	B10
0.331 OD	B11
0.277 OD	B12
0.325 OD	B13
0.373 OD	B14
0.242 OD	B15
0.292 OD	B16
0.306 OD	B17
0.33 OD	B18
0.348 OD	B19
0.402 OD	B20
0.35 OD	B21
0.304 OD	B22
0.309 OD	B23
0.295 OD	B24

optical density	Binder
0.378 OD	B25
0.314 OD	B26
0.341 OD	B27
0.276 OD	B28
0.288 OD	B29
0.269 OD	B30
0.265 OD	B31
0.514 OD	B32
0.347 OD	B33
0.321 OD	B34
0.326 OD	B35
0.476 OD	B36
0.399 OD	B37
0.287 OD	B38
0.544 OD	B39
0.386 OD	B40
0.478 OD	B41
0.337 OD	B42
0.299 OD	B43
0.333 OD	B44
0.315 OD	B45
0.403 OD	B46
0.371 OD	B47
0.385 OD	B48
